Eleven substances from patent publication US20150232510A1 can be followed below.

In the first assay the target is Recombinant Human DPPIV/CD26 (R&D Systems, Inc.) (human) (UniProt P27487). Put plainly: cell-based or functional assay.
Sequence of UniProt P27487 (P27487 29-766 limits assumed): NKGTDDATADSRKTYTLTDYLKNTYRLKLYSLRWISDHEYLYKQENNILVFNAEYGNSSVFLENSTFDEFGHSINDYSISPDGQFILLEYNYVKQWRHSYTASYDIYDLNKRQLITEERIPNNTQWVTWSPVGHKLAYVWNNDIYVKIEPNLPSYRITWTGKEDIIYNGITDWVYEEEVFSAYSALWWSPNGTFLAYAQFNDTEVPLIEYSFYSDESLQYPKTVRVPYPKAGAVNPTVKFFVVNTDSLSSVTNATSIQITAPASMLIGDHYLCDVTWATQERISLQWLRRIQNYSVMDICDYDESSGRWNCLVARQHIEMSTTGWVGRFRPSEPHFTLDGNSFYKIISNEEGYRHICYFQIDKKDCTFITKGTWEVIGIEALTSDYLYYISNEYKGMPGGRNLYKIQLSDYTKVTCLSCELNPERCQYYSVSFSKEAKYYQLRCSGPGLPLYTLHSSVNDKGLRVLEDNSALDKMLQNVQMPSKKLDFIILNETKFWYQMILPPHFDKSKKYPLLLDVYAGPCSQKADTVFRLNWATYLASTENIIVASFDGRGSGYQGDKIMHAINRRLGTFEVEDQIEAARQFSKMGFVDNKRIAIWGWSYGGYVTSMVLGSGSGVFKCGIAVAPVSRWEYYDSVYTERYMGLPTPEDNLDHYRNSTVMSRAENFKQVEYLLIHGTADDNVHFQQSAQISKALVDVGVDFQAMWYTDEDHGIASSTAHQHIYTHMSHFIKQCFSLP
Turning to Val-Pro-Ser (peptide), the DPP-4 inhibiting activity IC50(µg/ml) came to 5.17 µg/mL. As for Val-Pro-Asn (peptide), the DPP-4 inhibiting activity IC50(µg/ml) was 5.7 µg/mL. Same read-out and setting: to Val-Pro-Lys (peptide) belongs 10.4 µg/mL; to Val-Pro-Gln (peptide), 2.6 µg/mL; to Ile-Pro-Pro (peptide), 1340 µg/mL. Same read-out and setting: to Val-Pro-Gly (peptide) belongs 3.4 µg/mL; to Val-Pro-Val (peptide), 1 µg/mL; to Val-Pro-Tyr (peptide), 7.15 µg/mL.

With Val-Pro-Pro (peptide), the DPP-4 inhibiting activity IC50(µg/ml) was more than 2000 µg/mL.

As for LY (peptide), the DPP-4 inhibiting activity IC50(µg/ml) came to 486 µg/mL. Turning to Val-Pro-Ala (peptide), the DPP-4 inhibiting activity IC50(µg/ml) is 1.9 µg/mL and the concentration for 50% inhibition of the enzymatic activity (dipeptidyl peptidase-IV inhibiting ability of HPLC Fraction 2) was determined as 2 µg/mL.

A further assay concerns the target Angiotensin Converting Enzyme, from rabbit lung (SIGMA) (rabbit) (UniProt P12822). Put plainly: cell-based or functional assay.
Sequence of UniProt P12822 (P12822 34-1310 limits assumed): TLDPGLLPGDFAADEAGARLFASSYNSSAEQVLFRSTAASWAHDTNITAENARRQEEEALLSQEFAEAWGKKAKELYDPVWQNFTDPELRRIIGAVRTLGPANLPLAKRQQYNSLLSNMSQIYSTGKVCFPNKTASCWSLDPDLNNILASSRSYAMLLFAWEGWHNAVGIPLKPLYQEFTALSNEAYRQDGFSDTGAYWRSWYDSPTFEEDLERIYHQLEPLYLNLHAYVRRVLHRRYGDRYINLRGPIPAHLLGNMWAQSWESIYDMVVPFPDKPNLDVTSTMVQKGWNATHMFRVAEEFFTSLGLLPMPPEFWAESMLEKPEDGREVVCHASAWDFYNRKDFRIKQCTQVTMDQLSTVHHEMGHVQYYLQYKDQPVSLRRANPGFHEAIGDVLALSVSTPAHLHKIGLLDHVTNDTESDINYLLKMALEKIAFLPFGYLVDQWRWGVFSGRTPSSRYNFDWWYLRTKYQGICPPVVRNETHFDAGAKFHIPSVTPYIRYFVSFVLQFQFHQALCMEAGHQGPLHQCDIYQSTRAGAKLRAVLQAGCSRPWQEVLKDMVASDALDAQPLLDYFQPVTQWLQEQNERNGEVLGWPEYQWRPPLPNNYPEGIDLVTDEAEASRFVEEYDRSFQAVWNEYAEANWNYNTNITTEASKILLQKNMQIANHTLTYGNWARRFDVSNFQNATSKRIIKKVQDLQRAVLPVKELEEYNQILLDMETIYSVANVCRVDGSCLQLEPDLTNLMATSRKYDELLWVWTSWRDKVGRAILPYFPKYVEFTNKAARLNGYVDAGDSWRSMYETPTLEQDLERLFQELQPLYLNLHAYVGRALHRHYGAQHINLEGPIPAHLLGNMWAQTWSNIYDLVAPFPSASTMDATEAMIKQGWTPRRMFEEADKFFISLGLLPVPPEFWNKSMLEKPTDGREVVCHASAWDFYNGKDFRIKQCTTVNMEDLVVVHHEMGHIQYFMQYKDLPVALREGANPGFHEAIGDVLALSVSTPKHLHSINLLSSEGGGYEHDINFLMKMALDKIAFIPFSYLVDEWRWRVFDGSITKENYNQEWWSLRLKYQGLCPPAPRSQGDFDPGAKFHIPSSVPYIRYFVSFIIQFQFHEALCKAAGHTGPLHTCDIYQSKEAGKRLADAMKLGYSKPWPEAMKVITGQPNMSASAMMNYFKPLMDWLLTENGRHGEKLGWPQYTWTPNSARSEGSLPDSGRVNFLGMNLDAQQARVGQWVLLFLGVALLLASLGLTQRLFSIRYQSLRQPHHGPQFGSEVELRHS
The substance Val-Pro-Lys (peptide) displayed an ACE inhibiting activity, 50% inhibition concentration of 132 µg/mL. Same read-out and setting: to Val-Pro-Ala (peptide) belongs 24.8 µg/mL.
